Results reported in patent US20250242062A1 (VANDERBILT UNIVERSITY, published 2025).

Experiments:
[1] = biological target: T1, murine COX-2 (mCOX-2) enzyme (murine, UniProt Q05769 18-604); assay: microscale thermophoresis (MST), apo mCOX-2; apo mCOX-2 as target
T1 construct: also called apo mCOX-2; mouse COX-2
T1 sequence (looked up): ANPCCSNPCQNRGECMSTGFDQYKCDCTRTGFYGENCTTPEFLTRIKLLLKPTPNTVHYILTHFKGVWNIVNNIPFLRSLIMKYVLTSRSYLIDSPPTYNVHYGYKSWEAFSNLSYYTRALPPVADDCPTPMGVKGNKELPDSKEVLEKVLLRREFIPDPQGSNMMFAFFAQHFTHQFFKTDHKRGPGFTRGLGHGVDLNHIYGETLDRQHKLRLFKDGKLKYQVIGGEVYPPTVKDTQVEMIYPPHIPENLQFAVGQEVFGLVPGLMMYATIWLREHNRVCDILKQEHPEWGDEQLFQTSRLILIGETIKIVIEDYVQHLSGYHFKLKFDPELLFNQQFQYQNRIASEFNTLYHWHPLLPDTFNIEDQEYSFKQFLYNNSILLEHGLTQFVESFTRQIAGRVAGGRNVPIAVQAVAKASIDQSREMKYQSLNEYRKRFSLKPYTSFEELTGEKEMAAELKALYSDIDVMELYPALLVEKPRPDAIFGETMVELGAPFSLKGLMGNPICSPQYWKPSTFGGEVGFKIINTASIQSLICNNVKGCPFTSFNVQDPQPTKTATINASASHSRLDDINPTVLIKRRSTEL
Description: The dissociation constant of A7 and F9 nanobodies while bound to apo mCOX-2 was evaluated by a microscale thermophoresis (MST) assay (Bartoschik, T, et al. Sci Rep 2018 8:4977). […] Further, the COX-2 inhibitory activity of A7 and F9 nanobodies was evaluated in the production of prostaglandin E2 (PGE2) and prostaglandin D2 (PGD2) using arachidonic acid (AA) as a substrate. In this assay, purified mouse COX-2 expressed in baculovirus-infected Sf9 cells was used. Purified COX-2 was incubated with varying concentrations of test nanobodies followed by the addition of hematin and AA, respectively. The PGE2 and PGD2 products in the reaction was quantified by a tandem liquid chromatography mass spectroscopy (LC-MS/MS) analysis.

[2] = biological target: T1, murine COX-2 (mCOX-2) enzyme; assay: cell-based or functional assay

Kd [1]: 2.4 nM
IC50, inhibition of PGE2 and PGD2 production from arachidonic acid by purified mouse COX-2 (LC-MS/MS) [2]: 6.8 nM
B1: A7 nanobody (VHH)
VHH: QVQLQESGGGLVQPGGSLKLSCAASGSIFSINVMGWYRQAPGKQRELVATITSGGTTNYADSVKGRFTISRDNAKDTLYLQMNSLKPEDTAVYYCNAKDLGGSSWFSEFDYWGQGTQVTVGP
notes: Alpaca-derived VHH expressed in E. coli and purified by SEC; The stated molecular weight is 15.24 kDa; also called native A7 nanobody clone
